Data set [1] addresses alcohol dehydrogenase tetramer (from saccharomyces cerevisiae) (saccharomyces cerevisiae) (UniProt P00330). The experiment in a line: native MS; nanoelectrospray, 200 mM ammonium acetate, or charge-reduced in 160 mM ammonium acetate with 40 mM TEAA or EDDA; 5–10 μM protein complex; cyclic IMS (cIMS) and Synapt G2; TRAP with 14 equivalents of trp.
In data set [2] the target is αβγHis heterotrimer of His-tagged toyocamycin nitrile hydratase (TNH). The description is as above.
For data set [3], the target named is streptavidin homotetramer (UniProt P22629). The data set is described as above.
Data set [4] deals with the molecule itself. The description is as above.
The target in data set [5] is T1, C-reactive protein pentamer, P02741.
T1 chain: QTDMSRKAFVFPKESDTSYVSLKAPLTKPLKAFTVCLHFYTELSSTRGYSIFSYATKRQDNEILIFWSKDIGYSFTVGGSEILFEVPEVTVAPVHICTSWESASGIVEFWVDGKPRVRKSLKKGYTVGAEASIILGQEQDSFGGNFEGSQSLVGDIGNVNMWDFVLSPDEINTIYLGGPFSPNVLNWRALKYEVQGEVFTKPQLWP
The description is as above. As to conditions: remark: other sources report otherwise.

The data set “native MS” concerns the molecule itself. The experiment in a line: native MS.

Turning to “alcohol dehydrogenase tetramer (from saccharomyces cerevisiae) (from UniProt P00330 1-348) (enzyme)”, the stoichiometry N (usually a count of units in the complex or per binding partner) in data set [1] turned out to be 4.
For the molecule “αβγHis heterotrimer of His-tagged toyocamycin nitrile hydratase (TNH) (complex)”, in data set [2], the stoichiometry N came out at 2.
For the molecule “streptavidin homotetramer (from UniProt P22629 25-183) (natural protein)”, the stoichiometry N in data set [3] is 4.

B1: trp RNA binding attenuation protein (TRAP) homo-11mer (natural protein, UniProt Q9X6J6 1-74, looked up)
chain: MYTNSDFVVIKALEDGVNVIGLTRGADTRFHHSEKLDKGEVLIAQFTEHTSAIKVRGKAYIQTRHGVIESEGKK
notes: 91 kDa homo-11mer; it could be B. subtilis; also called holoTRAP; source: obtained from the Foster group (The Ohio State University) and the Gollnick group (State University of NY, Buffalo); copies: 11
In the case of B1, the “stoichiometry N” value in data set [4] came to 11.

B2: phosphorylase B dimer from rabbit muscle (enzyme, UniProt P00489 1-843, looked up)
chain: MSRPLSDQEKRKQISVRGLAGVENVTELKKNFNRHLHFTLVKDRNVATPRDYYFALAHTVRDHLVGRWIRTQQHYYEKDPKRIYYLSLEFYMGRTLQNTMVNLALENACDEATYQLGLDMEELEEIEEDAGLGNGGLGRLAACFLDSMATLGLAAYGYGIRYEFGIFNQKICGGWQMEEADDWLRYGNPWEKARPEFTLPVHFYGRVEHTSQGAKWVDTQVVLAMPYDTPVPGYRNNVVNTMRLWSAKAPNDFNLKDFNVGGYIQAVLDRNLAENISRVLYPNDNFFEGKELRLKQEYFVVAATLQDIIRRFKSSKFGCRDPVRTNFDAFPDKVAIQLNDTHPSLAIPELMRVLVDLERLDWDKAWEVTVKTCAYTNHTVLPEALERWPVHLLETLLPRHLQIIYEINQRFLNRVAAAFPGDVDRLRRMSLVEEGAVKRINMAHLCIAGSHAVNGVARIHSEILKKTIFKDFYELEPHKFQNKTNGITPRRWLVLCNPGLAEIIAERIGEEYISDLDQLRKLLSYVDDEAFIRDVAKVKQENKLKFAAYLEREYKVHINPNSLFDVQVKRIHEYKRQLLNCLHVITLYNRIKKEPNKFVVPRTVMIGGKAAPGYHMAKMIIKLITAIGDVVNHDPVVGDRLRVIFLENYRVSLAEKVIPAADLSEQISTAGTEASGTGNMKFMLNGALTIGTMDGANVEMAEEAGEENFFIFGMRVEDVDRLDQRGYNAQEYYDRIPELRQIIEQLSSGFFSPKQPDLFKDIVNMLMHHDRFKVFADYEEYVKCQERVSALYKNPREWTRMVIRNIATSGKFSSDRTIAQYAREIWGVEPSRQRLPAPDEKIP
notes: glycogen phosphorylase b from rabbit muscle; 195 kDa dimer; also called PHB; source: from rabbit muscle, bought: Sigma Aldrich (lyophilized powder)
As to B2, the “stoichiometry N” value in data set [4] turned out to be 2.

B3: C-reactive protein pentamer, P02741 19-224 (natural protein)
chain: T1 chain
B3: the stoichiometry N in data set [5] was 5.

B4: cholera toxin B homopentamer (natural protein)
chain: TPQNITDLCAEYHNTQIYTLNDKIFSYTESLAGKREMAIITFKNGAIFQVEVPGSQHIDSQKKAIERMKDTLRIAYLTEAKVEKLCVWNNKTPHAIAAISMAN
notes: also called 58 kDa cholera toxin B homopentamer
Take B4: the “stoichiometry N” value in “native MS” stood at 5.

The values above are taken from paper PMC8574189, “Surface-induced dissociation of protein complexes on a cyclic ion mobility spectrometer†” (The Analyst, 2021).
